In patent US5955575A, “Antagonists of G-protein-coupled receptor” (Hopital Sainte-Justine, priority 1997, dated 1999):
pIC50: −log10 of the molar value. No end group written: not given here.

Assays:
Type in all cases: cell-based
FP receptor [1] = biological target: T1, FP receptor (Homo sapiens, UniProt P43088); assay: Phosphoinositide hydrolysis in permeabilized A549 cells loaded with synthetic peptides, stimulated with PGF2α; conditions: dose-response in permeabilized A549 cells stimulated with PGF2α; FIG. 2B; read-out: half maximal inhibitory concentration
T1 construct: endogenous in cells; host or cells: A549 lung carcinoma cells (ATCC CCL185)
T1 sequence (P43088 whole entry): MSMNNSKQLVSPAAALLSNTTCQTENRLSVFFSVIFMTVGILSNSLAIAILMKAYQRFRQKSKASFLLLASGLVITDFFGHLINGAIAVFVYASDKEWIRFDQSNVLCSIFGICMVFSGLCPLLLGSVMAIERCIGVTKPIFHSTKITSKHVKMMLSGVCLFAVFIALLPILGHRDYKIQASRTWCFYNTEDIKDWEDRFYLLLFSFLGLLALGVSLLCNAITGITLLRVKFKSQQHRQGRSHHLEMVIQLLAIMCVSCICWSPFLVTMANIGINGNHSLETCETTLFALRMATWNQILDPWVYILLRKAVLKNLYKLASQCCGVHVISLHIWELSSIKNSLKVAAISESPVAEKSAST

EP1 = biological target: T2, EP1 (Homo sapiens, UniProt P34995); assay: Phosphoinositide hydrolysis in A549 cells stably expressing the peptides, stimulated with PGE2 (specificity); conditions: peptide stably expressed intracellularly in A549 cells; 1 μM PGE2 for 30 min; FIG. 1B
T2 construct: a related prostaglandin receptor expressed in these cells; endogenous in cells; host or cells: A549 lung carcinoma cells (ATCC CCL185)
T2 sequence (P34995 1-402): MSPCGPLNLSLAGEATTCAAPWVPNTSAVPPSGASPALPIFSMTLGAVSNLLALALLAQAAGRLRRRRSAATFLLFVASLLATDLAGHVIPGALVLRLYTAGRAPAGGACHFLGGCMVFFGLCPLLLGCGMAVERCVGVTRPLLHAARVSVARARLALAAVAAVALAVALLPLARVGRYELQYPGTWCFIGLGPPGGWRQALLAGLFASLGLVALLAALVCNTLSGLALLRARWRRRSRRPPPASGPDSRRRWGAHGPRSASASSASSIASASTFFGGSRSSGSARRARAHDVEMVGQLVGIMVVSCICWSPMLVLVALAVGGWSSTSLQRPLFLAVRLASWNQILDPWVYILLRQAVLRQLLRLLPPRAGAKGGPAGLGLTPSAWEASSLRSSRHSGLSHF
Method: (§1) A549 lung carcinoma cells (ATCC Accession No.: CCL185, American Type Culture Collection, Rockville, Md. 20852) were cultured in Dulbecco's modified Eagles medium (DMEM) with 10% fetal bovine serum (FBS) and antibiotics, penicillin (10 U/ml) and streptomycin (10 μg/ml) in a humidified atmosphere containing 5% CO2 at 37° C. The cells were trypsinized and plated in 6-well tissue culture dishes at 2×10^5 cells/well, a day before commencing the experiments.
(§2) The expression plasmids carrying the third (PCP-1) and the fourth (PCP-2) intracellular domains were introduced into A549 cells using Transfectamine lipid (GIBCO Life Technologies, Burlington, ON). Three (3) micrograms of DNA and 16 μg of lipid were mixed in 200 μl of water and incubated at room temperature for 45 min. Then, the lipid-DNA complexes were diluted with 0.8 ml of Opti-MEM™ (GIBCO Life Technologies, Burlington, ON). The cells were washed twice with Hank's Balanced Salt Solution and incubated with lipid-DNA complexes for 6 hours. An equal volume of DMEM with 20% FBS was added and the cells were kept in the incubator overnight. On the next day, the medium was replaced with DMEM containing 10% FBS and antibiotics and incubated for another 24 hours. […]

FP receptor [2] = biological target: T1, FP receptor; assay: Phosphoinositide hydrolysis in A549 cells stably expressing the peptides, stimulated with PGF2α; conditions: peptide stably expressed intracellularly in A549 cells; 1 μM PGF2α for 30 min; n=3; FIG. 1A
Method: as §1, §2

pIC50 (FP receptor [1])	inositol phosphate generation by EP1 receptor (EP1)	ligand-stimulated phosphoinositide hydrolysis (fold stimulation over unstimulated controls) (FP receptor [2])	Substance
4.30			KDTILQLNLKEYNLV-NH2 [PCP-4, KDTILQLNLK EYNLV-NH2]
	did not affect	inhibited	RKAVLKNLYKLASQCCGVHVISLHIWELSSIKNSLKVAAISESPVAEKSAST (RKAVLKNLYKLASQCCGVHVISLHIWELSSIKNSLKVAAISESPVAEKSAST) [PCP-2]
	did not affect	inhibited	RVKFKSQQHR QGRSHHLEM (RVKFKSQQHRQGRSHHLEM) [PCP-1]
